Test results from PMC9435400.

What was measured:
Test in all cases: SEC
[1] = biological target: BM48-31 soluble spike ectodomain (2P, GSAS, T4 fibritin trimerization motif) (BM48-31 (sarbecovirus) | bacteriophage T4)
[2] = biological target: BtKY72 soluble spike ectodomain (2P, GSAS, T4 fibritin trimerization motif) (BtKY72 (sarbecovirus) | bacteriophage T4)
[3] = biological target: Pang17 soluble spike ectodomain (2P, GSAS, T4 fibritin trimerization motif) (pang17 (sarbecovirus of pangolins) | bacteriophage T4)
[4] = biological target: Rf1 soluble spike ectodomain (2P, GSAS, T4 fibritin trimerization motif) (Rf1 (sarbecovirus) | bacteriophage T4)
[5] = biological target: RmYN02 soluble spike ectodomain (2P, GSAS, T4 fibritin trimerization motif) (RmYN02 (sarbecovirus) | bacteriophage T4)
[6] = biological target: Rs4081 soluble spike ectodomain (2P, GSAS, T4 fibritin trimerization motif) (Rs4081 (sarbecovirus) | bacteriophage T4)
[7] = biological target: SARS-CoV-1 soluble spike ectodomain (2P, GSAS, T4 fibritin trimerization motif) (SARS-CoV-1 | bacteriophage T4) (UniProt P59594)
[8] = biological target: Yun11 soluble spike ectodomain (2P, GSAS, T4 fibritin trimerization motif) (Yun11 (sarbecovirus) | bacteriophage T4)

BM48-31 soluble spike ectodomain (2P, GSAS, T4 fibritin trimerization motif) (domain or fragment)
stoichiometry N [1]: 3

BtKY72 soluble spike ectodomain (2P, GSAS, T4 fibritin trimerization motif) (domain or fragment)
stoichiometry N [2]: 3

Pang17 soluble spike ectodomain (2P, GSAS, T4 fibritin trimerization motif) (domain or fragment)
stoichiometry N [3]: 3

Rf1 soluble spike ectodomain (2P, GSAS, T4 fibritin trimerization motif) (domain or fragment)
stoichiometry N [4]: 3

RmYN02 soluble spike ectodomain (2P, GSAS, T4 fibritin trimerization motif) (domain or fragment)
stoichiometry N [5]: 3

Rs4081 soluble spike ectodomain (2P, GSAS, T4 fibritin trimerization motif) (domain or fragment)
stoichiometry N [6]: 3

SARS-CoV-1 soluble spike ectodomain (2P, GSAS, T4 fibritin trimerization motif) (from UniProt P59594 14-1190) (domain or fragment)
stoichiometry N [7]: 3

Yun11 soluble spike ectodomain (2P, GSAS, T4 fibritin trimerization motif) (domain or fragment)
stoichiometry N [8]: 3
